What all share (assay): SPR (Biacore), FcγR over captured antibody; binding amount / that of IL6R-BF648/IL6R-L x100
In one assay the target is T1, human FcγRIa (human, UniProt P12314 16-292, limits assumed).
T1 construct: also called FcgRIa; CD64

The target of another assay is T2, human FcγRIIa type R (human, UniProt P12318 36-217).
T2 construct: also called FcgRIIaR; FcγRIIa(R)
T2 chain: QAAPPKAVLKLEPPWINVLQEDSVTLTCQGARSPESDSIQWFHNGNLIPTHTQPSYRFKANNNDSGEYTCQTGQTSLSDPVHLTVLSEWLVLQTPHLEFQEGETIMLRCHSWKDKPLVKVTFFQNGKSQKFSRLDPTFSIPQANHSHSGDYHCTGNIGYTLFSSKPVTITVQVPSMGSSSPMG

The target of a further assay is T3, human FcγRIIa type H (human, UniProt P12318 36-217).
T3 construct: also called FcgRIIaH; FcγRIIa(H)
T3 sequence: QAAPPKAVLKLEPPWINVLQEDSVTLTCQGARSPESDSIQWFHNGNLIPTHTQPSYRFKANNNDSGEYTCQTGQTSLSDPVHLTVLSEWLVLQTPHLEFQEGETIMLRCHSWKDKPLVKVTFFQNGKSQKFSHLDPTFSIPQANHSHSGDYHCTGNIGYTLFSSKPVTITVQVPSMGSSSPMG

A further assay concerns the target T4, human FcγRIIIa type V (human, UniProt P08637 17-208, limits assumed).
T4 construct: Allotype V158 was used; also called FcgRIIIaV; FcγRIIIa(V)

In a further assay the target is T5, human FcγRIIb (human, UniProt P31994 43-217).
T5 construct: also called FcgRIIb; FcγIIB
T5 sequence: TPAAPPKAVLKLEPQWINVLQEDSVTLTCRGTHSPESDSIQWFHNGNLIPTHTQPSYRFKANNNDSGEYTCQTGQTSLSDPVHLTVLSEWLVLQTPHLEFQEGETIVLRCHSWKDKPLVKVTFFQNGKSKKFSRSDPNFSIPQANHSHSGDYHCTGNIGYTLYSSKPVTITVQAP

T1 sequence (P12314 16-292 limits assumed): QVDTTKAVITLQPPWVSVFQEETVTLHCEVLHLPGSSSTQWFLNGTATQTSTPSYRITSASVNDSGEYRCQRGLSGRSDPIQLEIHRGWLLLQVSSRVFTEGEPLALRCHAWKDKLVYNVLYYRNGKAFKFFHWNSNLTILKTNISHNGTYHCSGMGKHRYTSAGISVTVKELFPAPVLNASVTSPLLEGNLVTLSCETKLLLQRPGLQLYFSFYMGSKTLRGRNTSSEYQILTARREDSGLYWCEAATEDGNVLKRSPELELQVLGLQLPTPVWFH
T4 sequence (P08637 other isoform, or with tags, fused parts or gaps limits assumed): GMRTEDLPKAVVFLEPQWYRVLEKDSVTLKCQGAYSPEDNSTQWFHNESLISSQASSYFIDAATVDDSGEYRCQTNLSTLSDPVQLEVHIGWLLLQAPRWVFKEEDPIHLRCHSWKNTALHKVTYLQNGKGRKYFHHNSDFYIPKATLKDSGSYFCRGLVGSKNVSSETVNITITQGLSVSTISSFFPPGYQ
Protocol for human FcγRIIIa type V: (§1) According to the following method, relative binding activities were calculated for the results of analyzing interactions with the respective FcγRs.
Protocol for human FcγRIIa type H: as §1
Protocol for human FcγRIIa type R: as §1
Protocol for human FcγRIIb: as §1
Protocol for human FcγRIa: as §1

B1: IL6R-BP130/IL6R-L (antibody, human IgG1)
heavy: QVQLQESGPGLVKPSETLSLTCAVSGHSISHDHAWSWVRQPPGEGLEWIGFISYSGITNYNPSLQGRVTISRDNSKNTLYLQMNSLRAEDTAVYYCARSLARTTAMDYWGEGTLVTVSSASTKGPSVFPLAPSSKSTSGGTAALGCLVKDYFPEPVTVSWNSGALTSGVHTFPAVLQSSGLYSLSSVVTVPSSSLGTQTYICNVNHKPSNTKVDKKVEPKSCDKTHTCPPCPAPDLLGGDSVFLFPPKPKDTLMISRTPEVTCVVVDVSHEDPEVKFNWYVDGVEVHNAKTKPREEQYNSTYRVVSVLTVLHQDWLNGKEYKCKMSNKALPKPIEKTISKAKGQPREPQVYTLPPSRDELTKNQVSLTCLVKGFYPSDIAVEWESNGQPENNYKTTPPVLDSDGSFFLYSKLTVDKSRWQQGNVFSCSVMHEALHNHYTQESLSLSP
light: DIQMTQSPSSLSASVGDRVTITCRASQDISSYLNWYQQKPGKAPKLLIYYTSRLHSGVPSRFSGSGSGTDFTFTISSLQPEDIATYYCQQGNTLPYTFGQGTKVEIK
In the case of B1, the values for the relative binding activity with human FcγRIa, with human FcγRIIa type R and with human FcγRIIa type H were 104 % of IL6R-BF648/IL6R-L, 272 % of IL6R-BF648/IL6R-L and 224 % of IL6R-BF648/IL6R-L, respectively.

B2: IL6R-BP151/IL6R-L (antibody, human IgG1)
heavy: QVQLQESGPGLVKPSETLSLTCAVSGHSISHDHAWSWVRQPPGEGLEWIGFISYSGITNYNPSLQGRVTISRDNSKNTLYLQMNSLRAEDTAVYYCARSLARTTAMDYWGEGTLVTVSSASTKGPSVFPLAPSSKSTSGGTAALGCLVKDYFPEPVTVSWNSGALTSGVHTFPAVLQSSGLYSLSSVVTVPSSSLGTQTYICNVNHKPSNTKVDKKVEPKSCDKTHTCPPCPAPDYLGDDSVFLFPPKPKDTLMISRTPEVTCVVVDVSHEDPEVKFNWYVDGVEVHNAKTKPREEQYNSTYRVVSVLTVLHQDWLNGKEYKCKVSNAALPRPIEKTISKAKGQPREPQVYTLPPSRDELTKNQVSLTCLVKGFYPSDIAVEWESNGQPENNYKTTPPVLDSDGSFFLYSKLTVDKSRWQQGNVFSCSVMHEALHNHYTQESLSLSP
light: DIQMTQSPSSLSASVGDRVTITCRASQDISSYLNWYQQKPGKAPKLLIYYTSRLHSGVPSRFSGSGSGTDFTFTISSLQPEDIATYYCQQGNTLPYTFGQGTKVEIK
Regarding B2, the relative binding activity was 221 % of IL6R-BF648/IL6R-L with human FcγRIIIa type V, 39 % of IL6R-BF648/IL6R-L with human FcγRIa, 705 % of IL6R-BF648/IL6R-L in the assay with human FcγRIIa type R and 621 % of IL6R-BF648/IL6R-L with human FcγRIIa type H.

B3: IL6R-BP178/IL6R-L (antibody, human IgG1)
heavy: QVQLQESGPGLVKPSETLSLTCAVSGHSISHDHAWSWVRQPPGEGLEWIGFISYSGITNYNPSLQGRVTISRDNSKNTLYLQMNSLRAEDTAVYYCARSLARTTAMDYWGEGTLVTVSSASTKGPSVFPLAPSSKSTSGGTAALGCLVKDYFPEPVTVSWNSGALTSGVHTFPAVLQSSGLYSLSSVVTVPSSSLGTQTYICNVNHKPSNTKVDKKVEPKSCDKTHTCPPCPAPDLLGDDSVFLFPPKPKDTLMISRTPEVTCVVVDVSHEDGEVKFNWYVDGVEVHNAKTKPREEQYNSTYRVVSVLTVLHQDWLNGKEYKCKVSNKALPKPIEKTISKAKGQPREPQVYTLPPSRDELTKNQVSLTCLVKGFYPSDIAVEWESNGQPENNYKTTPPVLDSDGSFFLYSKLTVDKSRWQQGNVFSCSVMHEALHNHYTQESLSLSP
light: DIQMTQSPSSLSASVGDRVTITCRASQDISSYLNWYQQKPGKAPKLLIYYTSRLHSGVPSRFSGSGSGTDFTFTISSLQPEDIATYYCQQGNTLPYTFGQGTKVEIK
Turning to B3, the relative binding activity is 51 % of IL6R-BF648/IL6R-L with human FcγRIa, 653 % of IL6R-BF648/IL6R-L with human FcγRIIa type R, 179 % of IL6R-BF648/IL6R-L with human FcγRIIb and 259 % of IL6R-BF648/IL6R-L with human FcγRIIa type H.

B4: IL6R-BP152/IL6R-L (antibody, human IgG1)
heavy: QVQLQESGPGLVKPSETLSLTCAVSGHSISHDHAWSWVRQPPGEGLEWIGFISYSGITNYNPSLQGRVTISRDNSKNTLYLQMNSLRAEDTAVYYCARSLARTTAMDYWGEGTLVTVSSASTKGPSVFPLAPSSKSTSGGTAALGCLVKDYFPEPVTVSWNSGALTSGVHTFPAVLQSSGLYSLSSVVTVPSSSLGTQTYICNVNHKPSNTKVDKKVEPKSCDKTHTCPPCPAPDYLGDDSVFLFPPKPKDTLMISRTPEVTCVVVDVSHEDPEVKFNWYVDGVEVHNAKTKPREEQDNSTYRVVSVLTVLHQDWLNGKEYKCKVSNAALPRPIEKTISKAKGQPREPQVYTLPPSRDELTKNQVSLTCLVKGFYPSDIAVEWESNGQPENNYKTTPPVLDSDGSFFLYSKLTVDKSRWQQGNVFSCSVMHEALHNHYTQESLSLSP
light: DIQMTQSPSSLSASVGDRVTITCRASQDISSYLNWYQQKPGKAPKLLIYYTSRLHSGVPSRFSGSGSGTDFTFTISSLQPEDIATYYCQQGNTLPYTFGQGTKVEIK
B4: the relative binding activity was 34 % of IL6R-BF648/IL6R-L with human FcγRIa, 638 % of IL6R-BF648/IL6R-L in the assay with human FcγRIIa type R, 178 % of IL6R-BF648/IL6R-L with human FcγRIIb and 548 % of IL6R-BF648/IL6R-L in the assay with human FcγRIIa type H.

B5: IL6R-BP146/IL6R-L (antibody, human IgG1)
heavy: QVQLQESGPGLVKPSETLSLTCAVSGHSISHDHAWSWVRQPPGEGLEWIGFISYSGITNYNPSLQGRVTISRDNSKNTLYLQMNSLRAEDTAVYYCARSLARTTAMDYWGEGTLVTVSSASTKGPSVFPLAPSSKSTSGGTAALGCLVKDYFPEPVTVSWNSGALTSGVHTFPAVLQSSGLYSLSSVVTVPSSSLGTQTYICNVNHKPSNTKVDKKVEPKSCDKTHTCPPCPAPEYLGDDSVFLFPPKPKDTLMISRTPEVTCVVVDVSHEDPEVKFNWYVDGVEVHNAKTKPREEQYNSTYRVVSVLTVLHQDWLNGKEYKCKVSNAALPAPIEKTISKAKGQPREPQVYTLPPSRDELTKNQVSLTCLVKGFYPSDIAVEWESNGQPENNYKTTPPVLDSDGSFFLYSKLTVDKSRWQQGNVFSCSVMHEALHNHYTQESLSLSP
light: DIQMTQSPSSLSASVGDRVTITCRASQDISSYLNWYQQKPGKAPKLLIYYTSRLHSGVPSRFSGSGSGTDFTFTISSLQPEDIATYYCQQGNTLPYTFGQGTKVEIK
B5: the relative binding activity is 445 % of IL6R-BF648/IL6R-L in the assay with human FcγRIIa type R, 156 % of IL6R-BF648/IL6R-L in the assay with human FcγRIIb and 203 % of IL6R-BF648/IL6R-L in the assay with human FcγRIIa type H.

B6: IL6R-BP131/IL6R-L (antibody, human IgG1)
heavy: QVQLQESGPGLVKPSETLSLTCAVSGHSISHDHAWSWVRQPPGEGLEWIGFISYSGITNYNPSLQGRVTISRDNSKNTLYLQMNSLRAEDTAVYYCARSLARTTAMDYWGEGTLVTVSSASTKGPSVFPLAPSSKSTSGGTAALGCLVKDYFPEPVTVSWNSGALTSGVHTFPAVLQSSGLYSLSSVVTVPSSSLGTQTYICNVNHKPSNTKVDKKVEPKSCDKTHTCPPCPAPDLLGDDSVFLFPPKPKDTLMISRTPEVTCVVVDVSHEDPEVKFNWYVDGVEVHNAKTKPREEQYNSTYRVVSVLTVLHQDWLNGKEYKCKVSNKALPKPIEKTISKAKGQPREPQVYTLPPSRDELTKNQVSLTCLVKGFYPSDIAVEWESNGQPENNYKTTPPVLDSDGSFFLYSKLTVDKSRWQQGNVFSCSVMHEALHNHYTQESLSLSP
light: DIQMTQSPSSLSASVGDRVTITCRASQDISSYLNWYQQKPGKAPKLLIYYTSRLHSGVPSRFSGSGSGTDFTFTISSLQPEDIATYYCQQGNTLPYTFGQGTKVEIK
B6: the relative binding activity is 118 % of IL6R-BF648/IL6R-L with human FcγRIIIa type V, 33 % of IL6R-BF648/IL6R-L in the assay with human FcγRIa, 364 % of IL6R-BF648/IL6R-L with human FcγRIIa type R and 253 % of IL6R-BF648/IL6R-L with human FcγRIIa type H.

B7: IL6R-BP176/IL6R-L (antibody, human IgG1)
heavy: QVQLQESGPGLVKPSETLSLTCAVSGHSISHDHAWSWVRQPPGEGLEWIGFISYSGITNYNPSLQGRVTISRDNSKNTLYLQMNSLRAEDTAVYYCARSLARTTAMDYWGEGTLVTVSSASTKGPSVFPLAPSSKSTSGGTAALGCLVKDYFPEPVTVSWNSGALTSGVHTFPAVLQSSGLYSLSSVVTVPSSSLGTQTYICNVNHKPSNTKVDKKVEPKSCDKTHTCPPCPAPDLLGGDSVFLFPPKPKDTLMISRTPEVTCVVVDVSHEDPEVKFNWYVDGVEVHNAKTKPREEQYNSTYRVVSVLTVLHQDWLNGKEYKCKVSNDALPKPIEKTISKAKGQPREPQVYTLPPSRDELTKNQVSLTCLVKGFYPSDIAVEWESNGQPENNYKTTPPVLDSDGSFFLYSKLTVDKSRWQQGNVFSCSVMHEALHNHYTQESLSLSP
light: DIQMTQSPSSLSASVGDRVTITCRASQDISSYLNWYQQKPGKAPKLLIYYTSRLHSGVPSRFSGSGSGTDFTFTISSLQPEDIATYYCQQGNTLPYTFGQGTKVEIK
As for B7, the relative binding activity was 102 % of IL6R-BF648/IL6R-L in the assay with human FcγRIa, 201 % of IL6R-BF648/IL6R-L with human FcγRIIa type R, 147 % of IL6R-BF648/IL6R-L with human FcγRIIb and 128 % of IL6R-BF648/IL6R-L with human FcγRIIa type H.
